Laboratory results as given in paper doi:10.1101/2025.08.17.670746, “Post-transcriptional regulation of meiotic transcripts by the RNA binding protein CDM1 is associated with cytoplasmic condensate assemblies” (bioRxiv, 2025).

Molecular target: the molecule itself
Assay: pull-down; equimolar His6-MBP-CDM1-GFP and TEV-cleaved CDM1-GFP mixed in 20 mM HEPES pH 7.4, 150 mM KCl, 1 mM DTT, room temperature, 2 h; precipitated with anti-His antibody and Protein G beads; blot with anti-GFP

B1: CALLOSE … MICROSPORES1 (CDM1) fused to G3GFP, made in E. coli (His6-MBP-CDM1-GFP and its TEV-cleaved form CDM1-GFP) (natural protein, Arabidopsis thaliana, UniProt Q9C9F5 1-308, looked up)
chain: MENKIAPFSYSGSSAGNSSSGGVVSSSLYSDQLYKSTRNIMQQRQDMVNREALCYTRLHEASLEAEALRLENTELRSMNLRLKNELNSLIRSSIQNRFDHRSPLRMLSNLSIGGNDADEVENQNRTVNRDDVNDKSPTSVMENEDLNRSSLPKSISVRSNGYSKASQGGGGAAAQSGKPRGTVTKPGTCGQVSTTQKVYVRGGGKKEDQEEEIEVEVYNQGMTKTELCNKWQETGTCPYGDHCQFAHGIKELRPVIRHPRYKTEVCRMVLAGDNCPYGHRCHFRHSLSEQEKLVAAGFKPKSSLKLIT
notes: CDM1 (CALLOSE … MICROSPORE1, C3H15), Arabidopsis thaliana, At1G68200; Self-association test with two differently tagged copies: the bait copy kept His6-MBP (His6-MBP-CDM1-GFP); Both copies carry the C-terminal G3GFP, by which they were detected; also called C3H15; His-MBP-CDM1-G3GFP; source: E. coli BL21-Rosetta, purified (His Mag Sepharose Ni beads, dialysed); not shown: His6, N-terminal, kept; …
binding result: binds
